Measurements from publication doi:10.1101/2022.05.03.490446 (bioRxiv, 2022).
Like-named read-outs stand apart in the source and are kept apart here.

Key:
GroEL [1] = biological target: T1, GroEL (E. coli, UniProt P0A6F5 1-548)
GroEL [2] = biological target: T1, GroEL; test: fluorescence polarisation + other fluorescence titration
GroEL [3] = biological target: T1, GroEL; test: SEC
GroEL [4] = biological target: T1, GroEL; test: atomic force microscopy
GroEL [5] = biological target: T1, GroEL; test: other fluorescence titration

T1 sequence (P0A6F5 whole entry): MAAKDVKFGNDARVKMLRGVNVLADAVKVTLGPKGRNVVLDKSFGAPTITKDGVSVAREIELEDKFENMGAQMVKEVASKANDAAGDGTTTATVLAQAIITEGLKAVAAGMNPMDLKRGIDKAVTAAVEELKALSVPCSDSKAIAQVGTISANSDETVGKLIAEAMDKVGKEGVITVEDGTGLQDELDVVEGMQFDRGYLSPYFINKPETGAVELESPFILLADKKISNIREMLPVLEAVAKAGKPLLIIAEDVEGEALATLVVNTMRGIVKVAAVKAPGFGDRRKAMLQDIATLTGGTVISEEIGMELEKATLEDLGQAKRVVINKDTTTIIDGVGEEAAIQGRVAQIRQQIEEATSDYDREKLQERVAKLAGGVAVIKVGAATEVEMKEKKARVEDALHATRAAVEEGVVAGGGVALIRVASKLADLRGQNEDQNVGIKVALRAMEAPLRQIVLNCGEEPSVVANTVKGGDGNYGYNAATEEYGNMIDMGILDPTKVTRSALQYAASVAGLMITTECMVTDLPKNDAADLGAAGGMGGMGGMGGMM

Work on “fluorescein-labeled CnoX (from UniProt P77395 1-284) (natural protein)” yielded a Kd (GroEL [1]) of 350 nM and a Kd (GroEL [2]) of 310 nM.

With “CnoX (from UniProt P77395 1-284) (natural protein)” the stoichiometry N (GroEL:CnoX molar ratio) (GroEL [3]) was 14 and the specific binding force (GroEL [4]) was 175 pN.

B1: GroES (natural protein)
chain: MNIRPLHDRVIVKRKEVETKSAGGIVLTGSAAAKSTRGEVLAVGNGRILENGEVKPLDVKVGDIVIFNDGYGVKSEKIDNEEVLIMSESDILAIVEA
Molecule B1 has a Ki (GroEL [5]) of 47 nM.
